To fix the notation:
B1: CPEB3 Ribozyme (parent)
chain: GGGGGCCACAGCAGAAGCGUUCACGUCGCGGCCCCUGUCAGAUUCUGGUGAAUCUGCGAAUUCUGCUGU

The variants in this series derive from B1. The series can be described thus: self-cleavage, relative activity (ratio to wild type); higher = more cleavage; co-transcriptional.
In the case of C9G C12U, the self-cleavage is 1.
The result for C9G C12G reads 0.878; that for A10C U21A, 0.959; that for C9U G65C, 0.802.
The result for C9U G65U reads 0.845; that for A10C G11U, 0.913.
As for A10C G11A, the figure is 0.887.
Regarding C9G G14C, the self-cleavage worked out at 0.565.
As for C9G G14U, the figure is 0.756.
Consider C9U G48U, for which the self-cleavage worked out at 1.03.
The result for C9U G48A reads 1.03; that for A10C A51G, 1.06.
The result for A10C A51C reads 0.978; that for A10C A51U, 1.02.
As for A10C G25C, the figure is 0.103.
A10C G25A: the self-cleavage amounted to 0.212.
The result for A10C A60G reads 0.853; that for A10C A60C, 0.28.
For the variant A10C A60U, the self-cleavage worked out at 0.484.
The result for C9U A59G reads 0.986.
As for A10C C24U, the figure is 0.891.
Regarding A10C C24A, the self-cleavage was 0.738.
On to C9G G58C, for which the self-cleavage is 0.984.
As for C9G G58U, the figure is 1.04; as for C9U U43A, 0.971; as for C9U U43C, 1.02.
The result for A10C G19A reads 0.162; that for C9G C22U, 0.445; that for C9G C22G, 0.257.
The result for C9U G14A reads 0.878; that for C9U C24G, 0.535.
In the case of C9U C24U, the self-cleavage worked out at 0.888.
As for C9U C24A, the figure is 0.827; as for A10C A42U, 0.921; as for C9U C35A, 0.342.
The result for C9U C35U reads 0.982; that for C9U C35G, 0.76.
As for A10C U26G, the figure is 0.885; as for A10C U26C, 1.02; as for A10C U26A, 0.943.
Consider A10C G37C, for which the self-cleavage came to 0.23.
Regarding A10C G37U, the self-cleavage was 0.244.
The result for C9G C34G reads 0.994; that for A10C U69G, 1.05; that for A10C U69A, 1.06.
As for A10C U69C, the figure is 1.05; as for A10C A59U, 0.82.
The result for C9G G28U reads 0.104.
In the case of C9G C57G, the self-cleavage was 0.334.
As for C9G C57A, the figure is 0.402; as for C9G U36C, 1.02.
The result for C9G U36G reads 0.245; that for C9G G11A, 0.882; that for C9U G30U, 0.837.
C9G U53C: the self-cleavage turned out to be 0.956.
The result for C9G U53G reads 0.961.
As to C9U C39G, the self-cleavage was determined as 0.962.
On to C9U C39A, for which the self-cleavage turned out to be 0.912.
The result for A10C U20C reads 0.286; that for A10C U20G, 0.0821; that for A10C U20A, 0.205.
As to C9G U44A, the self-cleavage stood at 0.956.
The result for C9G U44C reads 0.954; that for C9G G25U, 0.207.
C9G G25A: the self-cleavage was found to be 0.216.
As for C9G G25C, the figure is 0.108; as for C9G U55G, 0.865; as for C9G U55C, 0.877.
For A10C G58C, the self-cleavage was 0.965.
The result for A10C G58U reads 0.999.
As for C9U U44C, the figure is 0.997; as for C9U U44A, 1.02; as for C9G G68C, 0.997.
As for C9G G68A, the figure is 1.05.
For C9G G68U, the self-cleavage was 1.02.
The result for C9U C34A reads 1.01.
As for C9U C34G, the figure is 1.01; as for C9U U61A, 1; as for C9U U61G, 0.985.
As for C9G U64C, the figure is 0.864; as for C9G U64A, 0.884; as for C9G C24A, 0.872.
With C9G C24U, the self-cleavage came out at 0.9.
The result for C9G U43A reads 1.02; that for C9G U43G, 0.955.
For C9G U43C, the self-cleavage was found to be 0.996.
The result for A10C A16G reads 0.967.
The result for A10C A16C reads 0.252.
As for A10C A16U, the figure is 0.818; as for C9U A23G, 1.01; as for C9U A23C, 0.982.
On to C9U A23U, for which the self-cleavage worked out at 1.01.
Take C9U A16C: the self-cleavage was determined as 0.531.
The result for C9G U67C reads 0.976; that for C9G U67G, 1.05.
Consider C9U A42C, for which the self-cleavage is 1.03.
As to C9U A42U, the self-cleavage is 0.997.
The result for C9U A42G reads 0.96; that for C9G C29G, 0.695.
The result for C9G C29U reads 0.897; that for C9G C29A, 0.84.
The result for A10G A13C reads 0.182.
On to C9U U62G, for which the self-cleavage was 0.987.
The result for C9U G68U reads 1.02; that for C9U G68A, 1.05; that for C9G G50C, 1.01.
As for A10C G50A, the figure is 0.971.
Consider A10C C45U, for which the self-cleavage came out at 1.
As for A10C C45A, the self-cleavage stood at 0.97.
As for A10C C57G, the figure is 0.292; as for A10C C57U, 0.275; as for A10C C57A, 0.351.
As for C9U G31A, the figure is 1; as for C9U G31C, 0.38; as for C9U G31U, 0.977.
As for A10C C22U, the figure is 0.351; as for A10C C22G, 0.141.
In the case of C9U C66U, the self-cleavage was determined as 1.05.
The result for C9U C66A reads 0.968.
With A10C G17A, the self-cleavage was 0.48.
As for A10C G17C, the figure is 0.0999; as for A10C U67C, 1.01.
The result for A10C U67G reads 1.03; that for A10G A15C, 0.254; that for A10G A15U, 0.253.
As for A10G A15G, the self-cleavage is 0.786.
For A10C U55C, the self-cleavage is 0.911.
On to A10C U55A, for which the self-cleavage was 0.824.
On to A10C U61A, for which the self-cleavage came out at 0.937.
The result for A10C U61C reads 0.763; that for A10C U61G, 0.768; that for C9G U21G, 0.696.
As for C9G U21C, the figure is 0.943; as for C9G U21A, 0.998; as for C9G C45G, 0.996.
In the case of C9G G31C, the self-cleavage is 0.363.
C9G G31U: the self-cleavage is 0.97.
As for C9U G11C, the figure is 0.927; as for C9U G11A, 0.971.
For C9U U21C, the self-cleavage is 0.999.
As for A10C U38C, the figure is 1; as for A10C C18G, 0.196.
As for C9G C32U, the self-cleavage was 0.992.
The result for C9G C32G reads 0.665; that for C9G C32A, 0.983.
The result for A10C A15C reads 0.771.
In the case of A10C A15G, the self-cleavage stood at 0.947.
The result for A10C A15U reads 0.77; that for C9U U55G, 0.953.
The result for C9U U55C reads 1.02; that for C9U U55A, 0.932.
As for A10C C35U, the figure is 0.992; as for A10C C35G, 0.631.
As to A10C C35A, the self-cleavage turned out to be 0.325.
The result for A10C C32A reads 0.908; that for A10C C32U, 1.04; that for C9U C33U, 0.996.
The result for C9U C33A reads 0.994; that for C9G C33U, 1.04; that for C9G C33G, 0.925.
Take C9U U67A: the self-cleavage stood at 1.01.
The result for C9U U67C reads 1.02.
The result for C9U U67G reads 1.01; that for A10C, 1.01; that for A10G, 0.94.
As for C9U G56A, the figure is 0.992; as for C9U G56C, 0.959.

These data come from the RNAGym collection of RNA variant scans (doi:10.7554/elife.80360).
